# Source: article PMC7935953, “Insights on autophagosome–lysosome tethering from structural and biochemical characterization of human autophagy factor EPG5” (Communications Biology, 2021)
# B1: hEPG5^Δ1–1198: hEPG5 truncation mutant which excludes the entire N-terminal region (protein)
# chain: YHCDRSLLSSLVSWIVAGNITPSFVEGLATPTQVWFAWTVLNMESIFEEDSQLRRVIEGELVINSAFTPDQALKKAQTQLKLPIVPSLQRLLIYRWAHQALVTPSDHPLLPLIWQKFFLLYLHRPGPQYGLPIDGCIGRRFFQSPAHINLLKEMKRRLTEVADFHHAASKALRVPAEGSEGLPESHSGTPGYLTSPELHKELVRLFNVYILWLEDENFQKGDTYIPSLPKHYDIHRLAKVMQNQQDLWMEYLNMERIYHEFQETVGLWTQAKLESHSTPCSLSVQLDFTDPLLAKERVLSNLRKHEAPQPPLALHPTKPPVPVISSAVLLSQKDATQLVCTDLNLLQQQARTAALRESQQVALDGELLDTMPKQYVNREEQTTLHLECRGSSGKKCQGAAVVTVQFEGMHKNEAISQQLHVLRKEVKQLQAEAAKPPSLNIVEAAVHAENLITALVNAYKLQPTPGIQKVGISLFFTIVDYVSDETQRHPPTRQFFTSCIEILGQVFISGIKSECRKVLETILKNSRLCSLLSPFFTPNAAPAEFIQLYEQVVKFLSEDNSDMIFMLLTKFDLKQWLSATKPPLSDRTRLLESIHLALTAWGLEPDEDILMPFNLFCKHWTYLLLYQFPDQYSDILRLLMQSSAEQLLSPECWKATLRALGCCAPSCQQGAASTEGAVLPSSSDALLSDKQVMETIQWLSDFFYKLRLSKMDFKSFGLFSKWSPYMADVKTFLGYLVKRLIDLEMTCLAQDPTASRKTVLKSLHSVIIQLFKPWILVLEDNESSQQRHYPWLESDTVVASSIVQLFTDCIDSLHESFKDKLLPGDAGALWLHLMHYCEACTAPKMPEFILYAFHSTYRKLPWKDLHPDQMLMEAFFKVERGSPKSCFLFLGSVLCEVNWVSVLSDAWNSSPHPETRSMIVCLLFMMILLAKEVQLVDQTDSPLLSLLGQTSSLSWHLVDIVSYQSVLSYFSSHYPPSIILAKESYAELIMKLLKVSAGLSIPTDSQKHLDAVPKCQAFTHQMVQFLSTLEQNGKITLAVLEQEMSKLLDDIIVFNPPDMDSQTRHMALSSLFMEVLMMMNNATIPTAEFLRGSIRTWIGQKMHGLVVLPLLTAACQSLASVRHMAETTEACITAYFKESPLNQNSGWGPILVSLQVPELTMEEFLQECLTLGSYLTLYVYLLQCLNSEQTLRNEMKVLLILSKWLEQVYPSSVEEEAKLFLWWHQVLQLSLIQTEQNDSVLTESVIRILLLVQSRQNLVAEERLSSGILGAIGFGRKSPLSNRFRVVARSMAAFLSVQVPMEDQIRLRPGSELHLTPKAQQALNALESMASSKQYVEYQDQILQATQFIRHPGHCLQDGKSFLALLVNCLYPEVHYLDHIR
# modifications: left off: His, end not stated, kept | FLAG, end not stated, kept
# notes: hEPG5 truncation mutant which excludes the entire N-terminal region
# Biological target: T1, GABARAP (Homo sapiens, UniProt O95166)
# T1 construct: made in house; host or cells: E. coli (T7 Express)
# T1 sequence (O95166 whole entry): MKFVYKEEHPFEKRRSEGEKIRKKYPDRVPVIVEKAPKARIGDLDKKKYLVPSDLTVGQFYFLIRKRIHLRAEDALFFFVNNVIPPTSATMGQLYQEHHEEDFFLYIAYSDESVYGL
# Test: GST pull-down of hEPG5 (wild type and mutants) with GST-GABARAP bait
# Format: binding
# Settings: anti-FLAG western blot, compared to wild-type hEPG5, triplicates
# Method: For GST pull-down analysis, N-terminally GST-tagged LC3 and GABARAP proteins were expressed in Escherichia coli (T7 Express) cells. The cells were induced with 1 mM isopropyl β-d-1-thiogalacpyranoside [IPTG] for 4 h at 25 °C. The cell pellets were resuspended in 25 mL buffer E (50 mM Tris pH 8.0, 150 mM NaCl, and 1 mM PMSF). Cells were then sonicated for four cycles consisting of 1 min sonication followed by 2 min cooling on ice, with duty cycle set to 50% and output control at 5. Cell lysate was then centrifuged at 20,950 × g for 40 min at 4 °C. Supernatant was incubated for 1 h at 4 °C with glutathione resin (50% slurry, GenScript) pre-equilibrated with buffer E, while gently inverting. Resin was returned to the column and washed with buffer E. Proteins were eluted with 10 mM reduced glutathione (GoldBio) in buffer F (50 mM Tris pH 8.0, 150 mM NaCl). Free glutathione was removed by dialysis in buffer F and protein concentration was measured by spectrophotometry (NanoDrop, Thermo Scientific). Glycerol was added to a final concentration of 5%, then solutions were aliquoted and stored at −70 °C.
# Pulldowns were performed with a 50 µL slurry of glutathione resin (50% slurry, GenScript). […]
# All experiments were performed in triplicates. […] Intensity of His-FLAG-hEPG5, GST (control), and GST-LC3/GABARAP subfamily proteins in pull-down assays was quantified using Bio-Rad Image Lab Software v6.0. […]
molecule,measurement,value
B1,"binding to GABARAP in GST pull-down, in words",but not hEPG5^Δ1–1198 was pulled down by GABARAP
